Patent US20090311267A1

How the values were obtained:
[1] = target: baboon platelet GPIb (on baboon platelets) (baboon (Papio ursinus)); test: GPIb occupancy on baboon platelets, 300 minutes after bolus of 2 mg/kg
[2] = target: baboon platelet GPIb (on baboon platelets) (baboon (Papio ursinus)); test: GPIb occupancy on baboon platelets, 150 minutes after bolus of 600 µg/kg
[3] = target: baboon platelet GPIb (on baboon platelets) (baboon (Papio ursinus)); test: GPIb occupancy on baboon platelets, 30 minutes after bolus of 4 mg/kg
[4] = target: baboon platelet GPIb (on baboon platelets) (baboon (Papio ursinus)); test: GPIb occupancy on baboon platelets, 150 minutes after bolus of 4 mg/kg
[5] = target: baboon platelet GPIb (on baboon platelets) (baboon (Papio ursinus)); test: GPIb occupancy on baboon platelets, 60 minutes after bolus of 2 mg/kg
[6] = target: baboon platelet GPIb (on baboon platelets) (baboon (Papio ursinus)); test: GPIb occupancy on baboon platelets, 30 minutes after bolus of 2 mg/kg
[7] = target: baboon platelet GPIb (on baboon platelets) (baboon (Papio ursinus)); test: GPIb occupancy on baboon platelets, 150 minutes after bolus of 2 mg/kg
[8] = target: baboon platelet GPIb (on baboon platelets) (baboon (Papio ursinus)); test: 125I-labelled fragment on baboon platelets in plasma
[9] = target: baboon platelet GPIb (on baboon platelets) (baboon (Papio ursinus)); test: GPIb occupancy on baboon platelets, 30 minutes after bolus of 600 µg/kg
[10] = target: baboon platelet GPIb (on baboon platelets) (baboon (Papio ursinus)); test: GPIb occupancy on baboon platelets, 60 minutes after bolus of 600 µg/kg
[11] = target: baboon platelet GPIb (on baboon platelets) (baboon (Papio ursinus)); test: cell-based or functional assay
[12] = target: baboon platelet GPIb (on baboon platelets) (baboon (Papio ursinus)); test: GPIb occupancy on baboon platelets, 300 minutes after bolus of 4 mg/kg
[13] = target: baboon platelet GPIb (on baboon platelets) (baboon (Papio ursinus)); test: GPIb occupancy on baboon platelets, 60 minutes after bolus of 4 mg/kg
[14] = target: baboon platelet GPIb (on baboon platelets) (baboon (Papio ursinus)); test: GPIb occupancy on baboon platelets, 300 minutes after bolus of 600 µg/kg
[15] = target: human collagen type I (human) (UniProt P02452); test: ex vivo ELISA, baboon plasma vWF on human collagen type I, % of pre-sample; 82D6A3 600 µg/kg group, 0 min
Chain of human collagen type I (human) (P02452 162-1218, chain 1 of 2): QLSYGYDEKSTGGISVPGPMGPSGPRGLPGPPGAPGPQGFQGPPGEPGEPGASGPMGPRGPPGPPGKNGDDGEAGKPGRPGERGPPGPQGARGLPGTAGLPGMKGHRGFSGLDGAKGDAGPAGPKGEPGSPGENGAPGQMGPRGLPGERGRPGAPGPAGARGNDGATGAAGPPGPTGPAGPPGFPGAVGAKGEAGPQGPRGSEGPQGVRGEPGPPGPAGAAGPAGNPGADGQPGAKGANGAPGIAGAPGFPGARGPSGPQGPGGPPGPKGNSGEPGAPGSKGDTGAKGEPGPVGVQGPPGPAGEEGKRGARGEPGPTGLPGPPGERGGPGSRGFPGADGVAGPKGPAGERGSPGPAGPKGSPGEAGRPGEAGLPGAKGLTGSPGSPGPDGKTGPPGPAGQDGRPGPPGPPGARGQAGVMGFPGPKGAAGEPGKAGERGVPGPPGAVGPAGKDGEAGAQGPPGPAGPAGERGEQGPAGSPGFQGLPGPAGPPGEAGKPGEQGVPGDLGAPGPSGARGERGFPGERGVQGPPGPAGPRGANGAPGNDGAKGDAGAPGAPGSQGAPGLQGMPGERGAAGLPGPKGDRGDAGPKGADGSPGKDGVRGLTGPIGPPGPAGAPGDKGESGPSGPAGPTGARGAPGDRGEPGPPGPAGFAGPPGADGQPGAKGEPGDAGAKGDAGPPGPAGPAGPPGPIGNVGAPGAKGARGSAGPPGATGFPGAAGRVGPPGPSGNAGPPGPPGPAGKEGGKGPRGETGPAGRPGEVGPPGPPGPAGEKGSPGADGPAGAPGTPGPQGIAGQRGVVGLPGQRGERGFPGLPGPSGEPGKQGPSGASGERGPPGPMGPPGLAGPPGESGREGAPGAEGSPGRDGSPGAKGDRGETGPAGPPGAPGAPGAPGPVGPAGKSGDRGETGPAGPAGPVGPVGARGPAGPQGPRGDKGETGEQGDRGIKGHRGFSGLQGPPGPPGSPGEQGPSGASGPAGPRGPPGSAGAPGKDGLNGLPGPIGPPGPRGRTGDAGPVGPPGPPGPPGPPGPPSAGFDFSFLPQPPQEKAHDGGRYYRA
Chain of human collagen type I (human) (P08123 80-1119, chain 2 of 2, further chain): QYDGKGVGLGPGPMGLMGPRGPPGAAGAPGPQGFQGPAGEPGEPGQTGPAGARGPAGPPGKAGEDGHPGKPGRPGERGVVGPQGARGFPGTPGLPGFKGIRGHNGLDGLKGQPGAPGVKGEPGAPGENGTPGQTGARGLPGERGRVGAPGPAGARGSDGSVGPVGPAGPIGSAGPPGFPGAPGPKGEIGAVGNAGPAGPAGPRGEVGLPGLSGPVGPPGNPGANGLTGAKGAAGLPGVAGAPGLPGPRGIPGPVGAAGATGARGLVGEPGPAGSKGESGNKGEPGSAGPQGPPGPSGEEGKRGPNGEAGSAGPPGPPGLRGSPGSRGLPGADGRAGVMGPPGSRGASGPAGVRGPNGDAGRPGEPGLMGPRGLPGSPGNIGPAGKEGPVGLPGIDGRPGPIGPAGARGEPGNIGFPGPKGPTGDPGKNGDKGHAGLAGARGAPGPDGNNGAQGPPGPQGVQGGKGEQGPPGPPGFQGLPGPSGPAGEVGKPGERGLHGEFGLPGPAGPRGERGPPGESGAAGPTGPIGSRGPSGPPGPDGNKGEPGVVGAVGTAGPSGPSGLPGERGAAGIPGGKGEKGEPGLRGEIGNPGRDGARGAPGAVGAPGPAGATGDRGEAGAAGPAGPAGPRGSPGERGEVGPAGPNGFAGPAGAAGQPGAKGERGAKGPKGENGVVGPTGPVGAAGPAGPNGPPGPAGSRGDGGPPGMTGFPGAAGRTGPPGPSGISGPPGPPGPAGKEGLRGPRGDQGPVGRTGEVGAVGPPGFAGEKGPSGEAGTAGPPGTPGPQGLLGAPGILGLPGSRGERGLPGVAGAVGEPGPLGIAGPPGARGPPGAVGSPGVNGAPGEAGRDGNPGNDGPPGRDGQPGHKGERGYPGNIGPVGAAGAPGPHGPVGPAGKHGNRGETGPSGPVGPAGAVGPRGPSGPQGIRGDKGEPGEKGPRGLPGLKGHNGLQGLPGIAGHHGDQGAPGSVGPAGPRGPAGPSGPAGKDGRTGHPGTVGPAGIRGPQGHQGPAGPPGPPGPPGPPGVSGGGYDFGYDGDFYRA

[16] = target: human collagen type I (human) (UniProt P02452); test: ex vivo ELISA, baboon plasma vWF on human collagen type I, % of pre-sample; 82D6A3 600 µg/kg, 150 min
[17] = target: human collagen type I (human) (UniProt P02452); test: ex vivo ELISA, baboon plasma vWF on human collagen type I, % of pre-sample; 82D6A3 300 µg/kg, 30 min
[18] = target: human collagen type I (human) (UniProt P02452); test: ex vivo ELISA, baboon plasma vWF on human collagen type I, % of pre-sample; 82D6A3 100 µg/kg group, 0 min
[19] = target: human collagen type I (human) (UniProt P02452); test: ex vivo ELISA, baboon plasma vWF on human collagen type I, % of pre-sample; 82D6A3 600 µg/kg, 24 h
[20] = target: human collagen type I (human) (UniProt P02452); test: ex vivo ELISA, baboon plasma vWF on human collagen type I, % of pre-sample; 82D6A3 100 µg/kg, 30 min
[21] = target: human collagen type I (human) (UniProt P02452); test: ex vivo ELISA, baboon plasma vWF on human collagen type I, % of pre-sample; 82D6A3 300 µg/kg, 150 min
[22] = target: human collagen type I (human) (UniProt P02452); test: ex vivo ELISA, baboon plasma vWF on human collagen type I, % of pre-sample; 82D6A3 300 µg/kg, 300 min
[23] = target: human collagen type I (human) (UniProt P02452); test: ex vivo ELISA, baboon plasma vWF on human collagen type I, % of pre-sample; 82D6A3 600 µg/kg, 300 min
[24] = target: human collagen type I (human) (UniProt P02452); test: ex vivo ELISA, baboon plasma vWF on human collagen type I, % of pre-sample; 82D6A3 600 µg/kg, 30 min
[25] = target: human collagen type I (human) (UniProt P02452); test: ex vivo ELISA, baboon plasma vWF on human collagen type I, % of pre-sample; 82D6A3 300 µg/kg, 24 h
[26] = target: human collagen type I (human) (UniProt P02452); test: ex vivo ELISA, baboon plasma vWF on human collagen type I, % of pre-sample; 82D6A3 300 µg/kg, 60 min
[27] = target: human collagen type I (human) (UniProt P02452); test: ex vivo ELISA, baboon plasma vWF on human collagen type I, % of pre-sample; 82D6A3 300 µg/kg group, 0 min
[28] = target: human collagen type I (human) (UniProt P02452); test: ex vivo ELISA, baboon plasma vWF on human collagen type I, % of pre-sample; 82D6A3 300 µg/kg, 48 h
[29] = target: human collagen type I (human) (UniProt P02452); test: ex vivo ELISA, baboon plasma vWF on human collagen type I, % of pre-sample; 82D6A3 600 µg/kg, 60 min
[30] = target: human collagen type I (human) (UniProt P02452); test: ex vivo ELISA, baboon plasma vWF on human collagen type I, % of pre-sample; 82D6A3 100 µg/kg, 60 min
[31] = target: purified human von Willebrand factor (human) (UniProt P04275); test: ELISA: inhibition of plasma or purified vWF binding to coated human collagen type I
[32] = target: purified human von Willebrand factor (human) (UniProt P04275); test: cell-based or functional assay
[33] = target: mouse GPIIb/IIIa (on mouse platelets) (mouse) (UniProt Q9QUM0); test: receptor occupancy on platelets of mice after 20 µg JON/A F(ab)2 i.v.
Chain of mouse GPIIb/IIIa (on mouse platelets) (mouse) (Q9QUM0 32-1033, chain 1 of 2): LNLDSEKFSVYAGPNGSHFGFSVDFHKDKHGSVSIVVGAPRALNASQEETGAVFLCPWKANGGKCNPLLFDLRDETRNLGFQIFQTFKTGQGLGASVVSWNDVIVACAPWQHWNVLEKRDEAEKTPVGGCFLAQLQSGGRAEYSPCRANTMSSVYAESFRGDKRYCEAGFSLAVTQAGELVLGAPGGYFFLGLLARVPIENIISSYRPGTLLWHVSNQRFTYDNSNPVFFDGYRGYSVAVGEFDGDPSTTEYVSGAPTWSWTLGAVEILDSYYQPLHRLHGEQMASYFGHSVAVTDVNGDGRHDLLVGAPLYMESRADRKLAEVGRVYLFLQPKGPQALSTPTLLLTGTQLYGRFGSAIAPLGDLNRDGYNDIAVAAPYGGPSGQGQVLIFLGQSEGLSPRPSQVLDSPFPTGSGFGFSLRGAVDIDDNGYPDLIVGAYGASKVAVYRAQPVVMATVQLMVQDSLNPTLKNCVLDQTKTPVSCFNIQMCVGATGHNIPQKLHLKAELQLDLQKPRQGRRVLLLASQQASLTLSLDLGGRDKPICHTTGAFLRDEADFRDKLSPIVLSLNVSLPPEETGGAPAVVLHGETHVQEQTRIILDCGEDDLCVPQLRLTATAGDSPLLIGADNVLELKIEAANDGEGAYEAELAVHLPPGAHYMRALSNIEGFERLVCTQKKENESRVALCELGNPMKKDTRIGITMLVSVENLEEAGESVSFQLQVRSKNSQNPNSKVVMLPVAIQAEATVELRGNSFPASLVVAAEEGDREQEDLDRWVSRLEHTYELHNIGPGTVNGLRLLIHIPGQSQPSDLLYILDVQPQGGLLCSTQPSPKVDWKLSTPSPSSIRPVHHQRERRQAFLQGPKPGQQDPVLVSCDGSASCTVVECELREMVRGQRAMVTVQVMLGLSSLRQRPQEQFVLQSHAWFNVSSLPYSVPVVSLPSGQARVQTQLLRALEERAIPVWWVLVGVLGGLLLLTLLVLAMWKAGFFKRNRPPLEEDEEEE
Chain of mouse GPIIb/IIIa (on mouse platelets) (mouse) (O54890 26-787, chain 2 of 2, further chain): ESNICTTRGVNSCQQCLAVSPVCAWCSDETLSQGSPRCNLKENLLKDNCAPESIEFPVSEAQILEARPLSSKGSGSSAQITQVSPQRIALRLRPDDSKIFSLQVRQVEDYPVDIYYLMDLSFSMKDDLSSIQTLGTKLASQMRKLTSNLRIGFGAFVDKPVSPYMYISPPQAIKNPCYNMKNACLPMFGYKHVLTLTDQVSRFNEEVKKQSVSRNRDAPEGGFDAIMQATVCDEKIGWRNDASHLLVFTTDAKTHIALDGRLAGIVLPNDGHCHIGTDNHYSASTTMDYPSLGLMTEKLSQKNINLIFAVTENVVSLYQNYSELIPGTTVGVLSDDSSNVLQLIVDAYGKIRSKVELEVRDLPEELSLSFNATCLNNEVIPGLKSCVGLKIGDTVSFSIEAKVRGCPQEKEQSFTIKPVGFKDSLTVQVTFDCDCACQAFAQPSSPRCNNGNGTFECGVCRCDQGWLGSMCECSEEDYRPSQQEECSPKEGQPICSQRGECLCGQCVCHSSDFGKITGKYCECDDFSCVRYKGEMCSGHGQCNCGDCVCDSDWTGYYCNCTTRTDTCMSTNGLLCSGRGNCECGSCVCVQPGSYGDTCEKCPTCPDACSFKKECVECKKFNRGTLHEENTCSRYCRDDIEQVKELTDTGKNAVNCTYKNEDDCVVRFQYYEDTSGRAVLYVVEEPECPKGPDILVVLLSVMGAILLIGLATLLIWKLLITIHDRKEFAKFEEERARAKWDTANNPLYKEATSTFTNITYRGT

[34] = target: mouse GPIIb/IIIa (on mouse platelets) (mouse) (UniProt Q9QUM0); test: receptor occupancy on platelets of mice after 10 µg JON/A F(ab)2 i.v.
[35] = target: mouse GPIIb/IIIa (on mouse platelets) (mouse) (UniProt Q9QUM0); test: receptor occupancy on platelets of mice after 100 µg JON/A F(ab)2 i.v.

Chain of baboon platelet GPIb (on baboon platelets) (baboon (Papio ursinus)) (A0A096 entry or part of it limits assumed, form in doubt): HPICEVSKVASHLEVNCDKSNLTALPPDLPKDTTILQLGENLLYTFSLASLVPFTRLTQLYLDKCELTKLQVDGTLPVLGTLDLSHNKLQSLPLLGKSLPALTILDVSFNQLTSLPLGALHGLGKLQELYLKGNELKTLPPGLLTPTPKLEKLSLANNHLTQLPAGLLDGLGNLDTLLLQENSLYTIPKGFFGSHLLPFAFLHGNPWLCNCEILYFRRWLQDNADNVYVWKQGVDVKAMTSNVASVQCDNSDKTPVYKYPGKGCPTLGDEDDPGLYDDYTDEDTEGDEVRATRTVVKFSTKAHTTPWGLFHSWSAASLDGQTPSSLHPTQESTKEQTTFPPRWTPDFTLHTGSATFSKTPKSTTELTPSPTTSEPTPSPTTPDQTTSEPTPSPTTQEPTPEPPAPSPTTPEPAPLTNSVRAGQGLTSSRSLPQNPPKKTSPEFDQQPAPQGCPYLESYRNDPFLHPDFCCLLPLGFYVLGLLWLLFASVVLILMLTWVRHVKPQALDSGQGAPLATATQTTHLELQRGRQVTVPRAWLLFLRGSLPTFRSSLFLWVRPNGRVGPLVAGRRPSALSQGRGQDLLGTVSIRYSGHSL

Substance: 6B4 Fab fragments
- receptor occupancy [1]: 12.9%
- receptor occupancy [2]: 17.1%
- receptor occupancy [3]: 84%
- receptor occupancy [4]: 45.6%
- receptor occupancy [5]: 64.8%
- receptor occupancy [6]: 69.3%
- receptor occupancy [7]: 43.9%
- KD50 (half saturation) [8]: 49.2 nmol/L
- receptor occupancy [9]: 34.5%
- receptor occupancy [10]: 28.6%
- % inhibition of ex vivo ristocetin-induced (1.5 mg/mL) platelet agglutination; after 160 µg/kg, time 270 min [11]: 8%
- % inhibition of ex vivo ristocetin-induced (1.5 mg/mL) platelet agglutination; after 640 µg/kg, time 270 min [11]: 15%
- % inhibition of ex vivo ristocetin-induced (1.5 mg/mL) platelet agglutination; after 640 µg/kg, time 24 h [11]: 7%
- % inhibition of ex vivo ristocetin-induced (1.5 mg/mL) platelet agglutination; dose 80 µg/kg, time 90 min [11]: 26%
- % inhibition of ex vivo ristocetin-induced (1.5 mg/mL) platelet agglutination; dose 160 µg/kg, time 150 min [11]: 47%
- % inhibition of ex vivo ristocetin-induced (1.5 mg/mL) platelet agglutination; dose 320 µg/kg, time 90 min [11]: 25%
- % inhibition of ex vivo ristocetin-induced (1.5 mg/mL) platelet agglutination; dose 640 µg/kg, time 150 min [11]: 80%
- IC50 of ristocetin-induced baboon platelet aggregation [11]: 40 nM
- ex vivo ristocetin-induced platelet aggregation, % of the response before injection; 600 µg/kg, 60 minutes [11]: 16.8%
- ex vivo ristocetin-induced platelet aggregation, % of the response before injection; 600 µg/kg, 150 minutes [11]: 68.8%
- ex vivo ristocetin-induced platelet aggregation, % of the response before injection; 2 mg/kg, 60 minutes [11]: 5.2%
- ex vivo ristocetin-induced platelet aggregation, % of the response before injection; 2 mg/kg, 150 minutes [11]: 19.2%
- ex vivo ristocetin-induced platelet aggregation, % of the response before injection; 4 mg/kg, 60 minutes [11]: 2%
- ex vivo ristocetin-induced platelet aggregation, % of the response before injection; 4 mg/kg, 150 minutes [11]: 16%
- receptor occupancy [12]: 31.3%
- receptor occupancy [13]: 79%
- receptor occupancy [14]: 6.3%

Substance: baboon vWF (in baboon plasma), A0A096N8H2 764-2813
- collagen binding (%) [15]: 100%
- collagen binding (%) [16]: 3.52%
- collagen binding (%) [17]: 4%
- collagen binding (%) [18]: 101%
- collagen binding (%) [19]: 45%
- collagen binding (%) [20]: 64%
- collagen binding (%) [21]: 4%
- collagen binding (%) [22]: 4%
- collagen binding (%) [23]: 4%
- collagen binding (%) [24]: 4%
- collagen binding (%) [25]: 91%
- collagen binding (%) [26]: 4%
- collagen binding (%) [27]: 101%
- collagen binding (%) [28]: 93%
- collagen binding (%) [29]: 3.5%
- collagen binding (%) [30]: 69%

Substance: 82D6A3 F(ab) fragment (Fab)
- IC50 [31]: 1 µg/mL
- concentration for complete inhibition of platelet deposition on human collagen type I under flow, shear rate 1300 s^-1 [32]: 10 µg/mL

Substance: JON/A F(ab)2 (antibody)
- Receptor occupancy, % [33]: 78.4%
- Receptor occupancy, % [34]: 67.8%
- Receptor occupancy, % [35]: > 95%
